Measurements as given in article PMC11938383, “Antibodies targeting ADAM17 reverse neurite outgrowth inhibition by myelin-associated inhibitors” (Life Science Alliance, 2025).

Tests used:
[1] = target: p75-Fc (human) (UniProt P08138); assay: BLI; Blitz (Forte Bio); 5-mer complex (via Lingo-Fc) or p75-Fc loaded at 50 μg/ml on protein A sensors; ADAM17 ECD (E406A) or D+C in solution; HBS (20 mM Hepes, 150 mM NaCl pH 7.4); apparent KD
[2] = target: neuron-myelin 5-mer signaling complex (NgR1, Lingo-1-Fc, p75, MAG, GT1b-Na) (mouse | human) (UniProt Q9D1T0); assay: as above
[3] = target: T1, neuronal receptor/co-receptor/p75 complex (Lingo-1-Fc, NgR1, p75, formed with GT1b-Na) (mouse | human, UniProt Q9D1T0 35-516; Q9BZR6 30-430; P08138 31-210); assay: pull-down; Lingo-1-Fc as bait on protein A-Sepharose; untagged NgR1, p75 (31-210) and MAG as prey; NgR1 and p75 pre-incubated with GT1b-Na (molar ratio 1:10), with or without GT1b-Na; 10 mM Hepes pH 7.4, 150 mM NaCl, 0.05% Triton-X100; 25°C, 1 h; two washes; SDS-PAGE; settings: both partners purified
T1 construct: Lingo-1, mouse, residues 35-516; NgR1, human, residues 30-430; p75, human, residues 31-210 (the version used in the pull-down assays); also called NgR1, Lingo-1, p75 complex; neuronal complex; source: assembled from purified HEK293 proteins on protein A-Sepharose in the presence of GT1b-Na; not shown: Fc, C-terminal, kept; Fc, C-terminal, cleaved; copies: + +
T1 sequence (looked up) 1: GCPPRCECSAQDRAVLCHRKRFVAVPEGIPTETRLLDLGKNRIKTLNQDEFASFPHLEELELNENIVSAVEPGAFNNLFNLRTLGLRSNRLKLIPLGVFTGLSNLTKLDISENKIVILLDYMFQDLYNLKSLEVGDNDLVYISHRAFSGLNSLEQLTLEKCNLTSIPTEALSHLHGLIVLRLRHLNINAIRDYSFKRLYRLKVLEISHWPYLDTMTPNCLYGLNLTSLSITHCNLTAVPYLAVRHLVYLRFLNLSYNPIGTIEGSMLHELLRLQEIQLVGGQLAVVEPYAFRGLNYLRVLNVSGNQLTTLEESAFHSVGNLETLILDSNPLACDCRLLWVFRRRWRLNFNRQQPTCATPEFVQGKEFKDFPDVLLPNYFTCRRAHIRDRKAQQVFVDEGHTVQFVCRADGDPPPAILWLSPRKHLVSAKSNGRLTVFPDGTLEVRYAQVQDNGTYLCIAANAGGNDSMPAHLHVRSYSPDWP
T1 sequence (looked up) 2: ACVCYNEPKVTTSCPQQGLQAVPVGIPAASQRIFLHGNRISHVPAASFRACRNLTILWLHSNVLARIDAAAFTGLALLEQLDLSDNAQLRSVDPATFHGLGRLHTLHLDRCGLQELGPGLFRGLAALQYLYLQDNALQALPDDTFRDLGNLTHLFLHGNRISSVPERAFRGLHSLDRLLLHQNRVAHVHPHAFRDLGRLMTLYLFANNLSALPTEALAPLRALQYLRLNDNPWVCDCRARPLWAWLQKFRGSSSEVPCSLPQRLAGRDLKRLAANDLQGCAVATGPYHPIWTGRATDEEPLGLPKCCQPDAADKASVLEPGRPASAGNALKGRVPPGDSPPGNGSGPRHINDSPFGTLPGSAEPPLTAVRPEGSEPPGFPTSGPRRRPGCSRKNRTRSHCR
T1 sequence (looked up) 3: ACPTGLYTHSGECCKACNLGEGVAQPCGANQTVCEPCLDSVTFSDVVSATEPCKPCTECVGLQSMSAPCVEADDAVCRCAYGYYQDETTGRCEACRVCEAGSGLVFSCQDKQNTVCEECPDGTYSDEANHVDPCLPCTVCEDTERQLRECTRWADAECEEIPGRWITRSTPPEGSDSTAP

[4] = target: the molecule itself; assay: SEC; individual proteins (Lingo-1, NgR1, p75 31-250) run alone on the SD-200 column, in the presence of GT1b-Na
[5] = target: ADAM17 ectodomain (ECD), residues 215-650, active-site mutant E406A (human, UniProt P78536 215-650, E406A); assay: BLI

Q: What does the source list for “ADAM17 D+C (disintegrin + cysteine-rich domain region) (from UniProt P78536 474-646) (domain or fragment)”?
A: Kd [1]: 350 nM; Kd [2]: 350 nM

B1: MAG (residues 22-504) (domain or fragment, human, UniProt P20916 22-504, looked up)
chain: WGAWMPSSISAFEGTCVSIPCRFDFPDELRPAVVHGVWYFNSPYPKNYPPVVFKSRTQVVHESFQGRSRLLGDLGLRNCTLLLSNVSPELGGKYYFRGDLGGYNQYTFSEHSVLDIVNTPNIVVPPEVVAGTEVEVSCMVPDNCPELRPELSWLGHEGLGEPAVLGRLREDEGTWVQVSLLHFVPTREANGHRLGCQASFPNTTLQFEGYASMDVKYPPVIVEMNSSVEAIEGSHVSLLCGADSNPPPLLTWMRDGTVLREAVAESLLLELEEVTPAEDGVYACLAENAYGQDNRTVGLSVMYAPWKPTVNGTMVAVEGETVSILCSTQSNPDPILTIFKEKQILSTVIYESELQLELPAVSPEDDGEYWCVAENQYGQRATAFNLSVEFAPVLLLESHCAAARDTVQCLCVVKSNPEPSVAFELPSRNVTVNESEREFVYSERSGLVLTSILTLRGQAQAPPRVICTARNLYGAKSLELPFQ
notes: myelin-associated glycoprotein (MAG), human, residues 22-504; also called myelin-associated glycoprotein; source: HEK293, purified (protein A Sepharose, size-exclusion on SD-200); not shown: Fc, C-terminal, cleaved
Q: Does B1 bind [3]?
A: Result: binds

B2: Lingo-1 ectodomain (35-516) (domain or fragment, mouse, UniProt Q9D1T0 35-516, looked up)
chain: T1 sequence (looked up) 1
notes: Lingo-1 (LINGO-1), mouse, ectodomain, residues 35-516; Used in size-exclusion chromatography; It migrates as a tetramer; source: HEK293, purified (protein A Sepharose, size-exclusion on SD-200)
Q: For B2, which “stoichiometry N” value [4] is on record?
A: Its value is 4.

B3: p75 ectodomain (residues 31-250) (domain or fragment, human, UniProt P08138 31-250, looked up)
chain: ACPTGLYTHSGECCKACNLGEGVAQPCGANQTVCEPCLDSVTFSDVVSATEPCKPCTECVGLQSMSAPCVEADDAVCRCAYGYYQDETTGRCEACRVCEAGSGLVFSCQDKQNTVCEECPDGTYSDEANHVDPCLPCTVCEDTERQLRECTRWADAECEEIPGRWITRSTPPEGSDSTAPSTQEPEAPPEQDLIASTVAGVVTTVMGSSQPVVTRGTTDN
notes: p75 (p75 NGF receptor), human, entire ectodomain, residues 31-250; Used in size-exclusion chromatography; migrates as an apparent dimer; One sentence of the methods prints 21-250 for this construct; also called longer version of p75; source: HEK293, purified (protein A Sepharose, size-exclusion on SD-200)
Q: Which “stoichiometry N” value [4] does the source give for B3 here?
A: Its value is 2.

B4: p75-Fc (Fc fusion)
chain: T1 sequence (looked up) 3
Q: With B4 as the molecule, how does the Kd [5] read?
A: Its Kd is over 10000 nM.
